The supplement of paper PMC7877785
± gives the uncertainty stated by the source.

Assay: self-splicing fitness, log relative to wild type (ln ratio); higher = more splicing; Tetrahymena group I intron in knt gene, E. coli kanamycin selection, DiMSum; sequences stand for … in CUCUCU…GGAGGGAAAAGUUAUCAGGCAUGCACCUGGUAGCUAGUCUUUAAACCAAUAGAUUGCAUCGGUUUAAAAGGCAAGACCGUCAAAUUGCGGGAAAGGGGUCAACAGCCGUUCAGUACCAAGUCUCAGGGGAAACUUUGAGAUGGCCUUGCAAAGGGUAUGGUAAUAAGCUGACGGACAUGGUCCUAACCACGCAGCCAAGUCCUAAGUCAACAGAUCUUCUGUUGAUAUGGAUGCAGUUCACAGACUAAAUGUCGGUCGGGGAAGAUGUAUUCUUCUCAUAAGAUAUAGUCGGACCUCUCCUUAAUGGGAGCUAGCGGAUGAAGUGAUGCAACACUGGAGCCGCUGGGAACUAAUUUGUAUGCGAAAGUAUAUUGAUUAGUUUUGGAGUACUCGUGGUCG
In short: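 Six replicate transformations of E. coli BL21(DE3) with a pET-22b(+) library were grown overnight at 37°C or 30°C. The library randomised all eight P1ex-region intron nucleotides, the intron lying in the knt kanamycin-resistance gene, and plates were LB agar with or without 25 μg/mL kanamycin plus 100 μg/mL carbenicillin, 50 μM IPTG and 0.2% rhamnose. Pooled colonies were amplicon-sequenced on an Illumina HiSeq 2500, and fitness is the DiMSum error-weighted combination of wild-type-normalised replicate fold changes, kanamycin versus none.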

Sequence | self-splicing fitness (ln) (30 °C) | self-splicing fitness (ln) (37 °C)
AGAUAGCAAUAUUACGCCGA | -1.89 ± 0.3 | -0.973 ± 0.3
AGAUAGCAAUAUUACGCCUG | -1.13 ± 0.12 | -0.496 ± 0.13
AGAUAGCAAUAUUACGCGGG | -1.66 ± 0.13 | -1.68 ± 0.15
AGAUAGCAAUAUUACGCUAA | -1.46 ± 0.15 | -0.455 ± 0.15
AGAUAGCAAUAUUACGCUAG | -3.21 ± 0.4 | -2.24 ± 0.42
AGAUAGCAAUAUUACGCUGC |  | -1.26 ± 0.34
AGAUAGCAAUAUUACGGCAA | 0.243 ± 0.16 | -0.127 ± 0.19
AGAUAGCAAUAUUACGGCAC | -1.52 ± 0.16 | -0.639 ± 0.23
AGAUAGCAAUAUUACGGCCC | -0.127 ± 0.19 | -0.606 ± 0.23
AGAUAGCAAUAUUACGGCGU | -0.0254 ± 0.091 | 0.663 ± 0.1
AGAUAGCAAUAUUACGGCUU | -0.346 ± 0.11 | -0.141 ± 0.097
AGAUAGCAAUAUUACGGGUG | -2.83 ± 0.2 | -1.88 ± 0.21
AGAUAGCAAUAUUACGGUGG | -1.66 ± 0.12 | -2.23 ± 0.16
AGAUAGCAAUAUUACGUCCC | -1.36 ± 0.2 | 0.133 ± 0.32
AGAUAGCAAUAUUACGUCGA | -0.721 ± 0.13 | 0.375 ± 0.13
AGAUAGCAAUAUUACGUCGC | -3.24 ± 0.39 | -1.21 ± 0.23
AGAUAGCAAUAUUACGUCUU | -2.52 ± 0.14 | -2.07 ± 0.17
AGAUAGCAAUAUUACGUUAG | -4.56 ± 0.31 | -0.345 ± 0.15
AGAUAGCAAUAUUACGUUCA | -0.78 ± 0.13 | -0.5 ± 0.15
AGAUAGCAAUAUUACGUUUC | -3.56 ± 0.29 | 
AGCAAGCAAUAUUACGACAU | -0.211 ± 0.011 | 0.0321 ± 0.032
AGCAAGCAAUAUUACGAGAG | -3.11 ± 0.2 | -2.42 ± 0.25
AGCAAGCAAUAUUACGAGGA | -2.86 ± 0.17 | -2.29 ± 0.2
AGCAAGCAAUAUUACGAUGU | -1.92 ± 0.068 | -0.392 ± 0.076

Sequence | self-splicing fitness (ln) (30 °C) | self-splicing fitness (ln) (37 °C)
AGCAAGCAAUAUUACGAUUG | -4.19 ± 0.17 | -1.91 ± 0.11
AGCAAGCAAUAUUACGCCUU | -1.24 ± 0.1 | 0.351 ± 0.11
AGCAAGCAAUAUUACGCGGU | -3.33 ± 0.16 | -1.66 ± 0.17
AGCAAGCAAUAUUACGGCCA | -0.0326 ± 0.088 | -0.0437 ± 0.12
AGCAAGCAAUAUUACGGCGU | -0.229 ± 0.078 | 0.0744 ± 0.1
AGCAAGCAAUAUUACGGGCA | -0.263 ± 0.071 | 0.111 ± 0.084
AGCAAGCAAUAUUACGGUGG | -2.65 ± 0.1 | -2.32 ± 0.15
AGCAAGCAAUAUUACGUCAA | -1.76 ± 0.13 | -1.13 ± 0.11
AGCAAGCAAUAUUACGUCCC | -0.545 ± 0.1 | -0.16 ± 0.13
AGCAAGCAAUAUUACGUCUG | -2.22 ± 0.09 | -1.15 ± 0.095
AGCAAGCAAUAUUACGUGAA | -2.21 ± 0.068 | -1.95 ± 0.11
AGCAAGCAAUAUUACGUGGC | -2.83 ± 0.15 | -3.3 ± 0.21
AGCAAGCAAUAUUACGUGUU | -3.17 ± 0.18 | -2.64 ± 0.17
AGCAAGCAAUAUUACGUUCG | -2.66 ± 0.084 | -1.44 ± 0.09
AGCCAGCAAUAUUACGAAAU | -3.02 ± 0.11 | -2.17 ± 0.13
AGCCAGCAAUAUUACGACCG | -3.83 ± 0.32 | -1.89 ± 0.24
AGCCAGCAAUAUUACGACGC | -1.66 ± 0.14 | -0.853 ± 0.16
AGCCAGCAAUAUUACGACGU | -0.356 ± 0.068 | -0.487 ± 0.085
AGCCAGCAAUAUUACGAGUA | -3.06 ± 0.22 | -1.5 ± 0.16
AGCCAGCAAUAUUACGAUGU | -2.62 ± 0.16 | -1.32 ± 0.13
AGCCAGCAAUAUUACGAUUC | -2.67 ± 0.22 | -2.49 ± 0.3
AGCCAGCAAUAUUACGCGCC | -2.18 ± 0.15 | -1.74 ± 0.23
AGCCAGCAAUAUUACGCGGU | -2.93 ± 0.28 | -2.29 ± 0.33
AGCCAGCAAUAUUACGCUGC | -3.09 ± 0.34 | -2.59 ± 0.26
